# Source: article PMC5916898, “Global profiling of protein–DNA and protein–nucleosome binding affinities using quantitative mass spectrometry”
# T1: CTCF (Homo sapiens, UniProt P49711)
# T1 sequence: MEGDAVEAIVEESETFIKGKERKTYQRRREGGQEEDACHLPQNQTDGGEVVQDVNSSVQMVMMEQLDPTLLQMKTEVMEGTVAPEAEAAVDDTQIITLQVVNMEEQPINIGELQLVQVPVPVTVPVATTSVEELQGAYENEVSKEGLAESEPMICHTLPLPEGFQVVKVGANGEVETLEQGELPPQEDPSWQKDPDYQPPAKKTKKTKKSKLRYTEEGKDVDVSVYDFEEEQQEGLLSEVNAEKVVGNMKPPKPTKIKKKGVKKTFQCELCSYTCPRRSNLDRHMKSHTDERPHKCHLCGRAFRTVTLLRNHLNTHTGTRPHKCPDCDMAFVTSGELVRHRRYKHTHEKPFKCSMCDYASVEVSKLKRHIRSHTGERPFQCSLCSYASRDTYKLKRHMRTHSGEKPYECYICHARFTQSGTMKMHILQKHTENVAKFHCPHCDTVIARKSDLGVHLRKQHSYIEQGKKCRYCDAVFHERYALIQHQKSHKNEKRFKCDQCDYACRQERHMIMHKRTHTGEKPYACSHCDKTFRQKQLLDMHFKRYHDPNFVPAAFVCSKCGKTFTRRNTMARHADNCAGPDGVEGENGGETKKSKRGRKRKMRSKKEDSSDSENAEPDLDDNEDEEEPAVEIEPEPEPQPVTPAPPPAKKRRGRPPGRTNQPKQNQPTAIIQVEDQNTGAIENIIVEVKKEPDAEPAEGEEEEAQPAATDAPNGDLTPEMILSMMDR
# T2: ZBTB43 (Homo sapiens, UniProt O43298)
# T2 sequence: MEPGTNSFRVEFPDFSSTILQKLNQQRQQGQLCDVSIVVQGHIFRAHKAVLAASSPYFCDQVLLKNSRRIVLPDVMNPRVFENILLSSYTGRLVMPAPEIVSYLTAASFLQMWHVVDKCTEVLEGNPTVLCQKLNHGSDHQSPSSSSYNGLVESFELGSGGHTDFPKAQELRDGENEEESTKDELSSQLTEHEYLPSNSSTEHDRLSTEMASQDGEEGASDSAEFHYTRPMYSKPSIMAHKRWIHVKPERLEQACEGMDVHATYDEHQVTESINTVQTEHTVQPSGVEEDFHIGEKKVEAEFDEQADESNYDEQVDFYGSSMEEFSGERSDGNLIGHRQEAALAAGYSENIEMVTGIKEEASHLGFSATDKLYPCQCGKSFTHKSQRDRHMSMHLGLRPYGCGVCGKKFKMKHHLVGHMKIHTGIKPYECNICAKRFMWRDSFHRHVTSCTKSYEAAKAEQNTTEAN
# T3: FOXL2 (Homo sapiens, UniProt P58012)
# T3 sequence: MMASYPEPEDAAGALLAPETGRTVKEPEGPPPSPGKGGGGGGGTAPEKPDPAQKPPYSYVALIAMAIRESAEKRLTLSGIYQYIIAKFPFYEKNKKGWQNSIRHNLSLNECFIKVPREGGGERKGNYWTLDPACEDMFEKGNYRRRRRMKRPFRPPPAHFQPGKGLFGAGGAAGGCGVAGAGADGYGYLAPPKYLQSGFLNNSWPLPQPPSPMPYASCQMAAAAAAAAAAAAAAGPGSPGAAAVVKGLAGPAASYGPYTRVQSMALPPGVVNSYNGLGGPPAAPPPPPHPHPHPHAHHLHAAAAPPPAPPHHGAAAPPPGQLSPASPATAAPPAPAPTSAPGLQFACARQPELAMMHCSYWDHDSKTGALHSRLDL
# B1: CTCF (dsDNA)
# DNA 1: TCAGAGTGGCGGCCAGCAGGGGGCGCCCTTGCCAGA
# DNA 2: TCTGGCAAGGGCGCCCCCTGCTGGCCGCCACTCTGA
# B2: TEAD (dsDNA)
# DNA 1: TCGGGACCCAGGCCTGGAATGTTTCCACC
# DNA 2: GGTGGAAACATTCCAGGCCTGGGTCCCGA
# B3: SP/KLF wild-type (dsDNA)
# DNA 1: GAGAGCCCCGCCCCCTGGCT
# DNA 2: AGCCAGGGGGCGGGGCTCTC
# B4: TATA-box (dsDNA)
# DNA 1: GCGGCGCTCTATATAAGTGGGCAGTG
# DNA 2: CACTGCCCACTTATATAGAGCGCCGC
# What was measured:
# Experiment in all cases: pulldown; 150 mM NaCl, 50 mM Tris pH 8, 0.25% NP-40, 1 mM TCEP; 4 C, 2 h; 100 ug HeLa nuclear lysate
# KLF3 = KLF3 (Homo sapiens, UniProt P57682); conditions: protein: extract; label: 5' biotin (strand 1)
# Sequence of KLF3 (P57682 whole entry): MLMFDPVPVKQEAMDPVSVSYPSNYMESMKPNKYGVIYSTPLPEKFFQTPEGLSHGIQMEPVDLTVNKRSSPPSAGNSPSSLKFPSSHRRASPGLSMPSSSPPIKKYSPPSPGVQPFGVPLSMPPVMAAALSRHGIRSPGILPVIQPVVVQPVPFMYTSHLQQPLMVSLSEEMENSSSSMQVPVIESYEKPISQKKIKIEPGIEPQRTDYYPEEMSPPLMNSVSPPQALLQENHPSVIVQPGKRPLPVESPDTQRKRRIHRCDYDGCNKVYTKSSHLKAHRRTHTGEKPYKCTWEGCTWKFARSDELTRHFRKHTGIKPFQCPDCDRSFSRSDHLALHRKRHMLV
# ZBTB7B = ZBTB7B (Homo sapiens, UniProt O15156); conditions: protein: extract; label: 5' biotin (strand 1)
# Sequence of ZBTB7B (O15156 whole entry): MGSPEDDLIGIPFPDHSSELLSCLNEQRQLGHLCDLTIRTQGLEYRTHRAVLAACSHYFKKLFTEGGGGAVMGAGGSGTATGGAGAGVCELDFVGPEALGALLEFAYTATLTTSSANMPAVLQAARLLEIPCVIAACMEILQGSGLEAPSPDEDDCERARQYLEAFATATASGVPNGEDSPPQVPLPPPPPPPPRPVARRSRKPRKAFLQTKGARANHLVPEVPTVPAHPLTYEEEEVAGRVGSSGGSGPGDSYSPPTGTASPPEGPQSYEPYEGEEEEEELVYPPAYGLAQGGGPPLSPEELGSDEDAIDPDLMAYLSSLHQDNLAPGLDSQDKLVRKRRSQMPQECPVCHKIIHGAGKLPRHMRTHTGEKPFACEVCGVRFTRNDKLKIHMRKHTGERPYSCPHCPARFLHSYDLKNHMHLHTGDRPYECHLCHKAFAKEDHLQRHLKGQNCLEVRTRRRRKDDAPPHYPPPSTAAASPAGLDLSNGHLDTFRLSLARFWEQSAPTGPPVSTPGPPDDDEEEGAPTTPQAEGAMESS
# KLF10 = KLF10 (Homo sapiens, UniProt Q13118); conditions: protein: extract; label: 5' biotin (strand 1)
# Sequence of KLF10 (Q13118 whole entry): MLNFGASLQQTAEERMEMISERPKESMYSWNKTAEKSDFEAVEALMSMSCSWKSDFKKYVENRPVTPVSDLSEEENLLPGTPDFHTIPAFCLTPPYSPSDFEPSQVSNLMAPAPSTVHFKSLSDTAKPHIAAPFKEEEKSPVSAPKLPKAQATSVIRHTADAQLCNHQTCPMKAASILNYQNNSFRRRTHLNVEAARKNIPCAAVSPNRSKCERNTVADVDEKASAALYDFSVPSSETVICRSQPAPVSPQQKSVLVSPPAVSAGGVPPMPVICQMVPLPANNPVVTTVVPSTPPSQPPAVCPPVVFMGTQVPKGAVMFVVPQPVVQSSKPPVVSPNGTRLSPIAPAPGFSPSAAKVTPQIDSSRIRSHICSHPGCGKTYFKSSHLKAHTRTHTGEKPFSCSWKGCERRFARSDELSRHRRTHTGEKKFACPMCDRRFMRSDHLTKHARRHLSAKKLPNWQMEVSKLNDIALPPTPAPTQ
# CTCF = target: T1, CTCF; conditions: protein: extract; label: 5' biotin (strand 1)
# SP3 = SP3 (Homo sapiens, UniProt Q02447); conditions: protein: extract; label: 5' biotin (strand 1)
# Sequence of SP3 (Q02447 whole entry): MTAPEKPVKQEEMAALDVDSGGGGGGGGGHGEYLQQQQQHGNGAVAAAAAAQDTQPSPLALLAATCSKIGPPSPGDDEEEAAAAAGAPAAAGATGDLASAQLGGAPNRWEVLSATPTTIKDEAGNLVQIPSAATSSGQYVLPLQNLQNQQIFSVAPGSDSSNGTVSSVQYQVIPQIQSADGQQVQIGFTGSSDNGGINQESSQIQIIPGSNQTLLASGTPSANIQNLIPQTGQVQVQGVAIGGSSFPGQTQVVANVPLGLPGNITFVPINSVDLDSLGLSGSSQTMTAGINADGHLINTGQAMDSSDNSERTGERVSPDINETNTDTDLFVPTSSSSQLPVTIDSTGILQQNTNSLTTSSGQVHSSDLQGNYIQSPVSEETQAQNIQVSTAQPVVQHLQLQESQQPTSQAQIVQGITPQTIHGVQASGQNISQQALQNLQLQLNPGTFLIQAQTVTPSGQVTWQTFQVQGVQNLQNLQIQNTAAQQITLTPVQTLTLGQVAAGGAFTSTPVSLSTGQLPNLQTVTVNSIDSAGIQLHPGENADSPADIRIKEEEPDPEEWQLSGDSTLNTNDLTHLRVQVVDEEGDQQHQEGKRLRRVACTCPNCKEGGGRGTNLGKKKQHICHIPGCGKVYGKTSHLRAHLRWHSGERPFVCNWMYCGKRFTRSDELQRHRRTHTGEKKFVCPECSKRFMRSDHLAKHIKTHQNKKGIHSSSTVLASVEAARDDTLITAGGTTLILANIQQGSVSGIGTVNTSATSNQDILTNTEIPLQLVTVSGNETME
# TFAP2A = TFAP2A (Homo sapiens, UniProt P05549); conditions: protein: extract; label: 5' biotin (strand 1)
# Sequence of TFAP2A (P05549 whole entry): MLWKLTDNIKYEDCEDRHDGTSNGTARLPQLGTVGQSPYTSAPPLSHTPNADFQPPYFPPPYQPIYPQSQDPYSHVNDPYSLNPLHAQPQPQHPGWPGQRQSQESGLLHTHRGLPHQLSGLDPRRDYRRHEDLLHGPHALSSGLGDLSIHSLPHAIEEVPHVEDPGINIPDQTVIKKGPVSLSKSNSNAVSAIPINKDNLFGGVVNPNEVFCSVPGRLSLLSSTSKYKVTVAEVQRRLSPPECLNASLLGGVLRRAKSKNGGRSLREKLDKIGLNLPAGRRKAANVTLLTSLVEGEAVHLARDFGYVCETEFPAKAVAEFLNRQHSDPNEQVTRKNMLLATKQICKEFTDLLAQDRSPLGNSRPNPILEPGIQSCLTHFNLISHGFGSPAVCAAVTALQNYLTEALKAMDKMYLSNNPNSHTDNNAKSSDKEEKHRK
# NFIA = NFIA (Homo sapiens, UniProt Q12857); conditions: protein: extract; label: 5' biotin (strand 1)
# Sequence of NFIA (Q12857 whole entry): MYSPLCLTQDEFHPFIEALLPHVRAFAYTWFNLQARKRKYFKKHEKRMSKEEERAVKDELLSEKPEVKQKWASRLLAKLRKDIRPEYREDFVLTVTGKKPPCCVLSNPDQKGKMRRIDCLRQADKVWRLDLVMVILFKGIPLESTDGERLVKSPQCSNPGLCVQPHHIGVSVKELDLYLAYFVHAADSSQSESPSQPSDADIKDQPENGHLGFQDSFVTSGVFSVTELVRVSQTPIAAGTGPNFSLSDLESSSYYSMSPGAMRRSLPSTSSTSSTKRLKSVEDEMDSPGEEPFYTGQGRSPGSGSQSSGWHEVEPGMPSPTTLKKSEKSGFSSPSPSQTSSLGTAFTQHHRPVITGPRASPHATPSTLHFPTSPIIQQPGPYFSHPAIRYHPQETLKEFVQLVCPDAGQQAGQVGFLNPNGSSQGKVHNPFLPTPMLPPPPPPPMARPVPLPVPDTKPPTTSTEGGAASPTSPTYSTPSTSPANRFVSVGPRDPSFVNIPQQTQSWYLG
# HIVEP1 = HIVEP1 (Homo sapiens, UniProt P15822)
# RBPJ = RBPJ (Homo sapiens, UniProt Q06330); conditions: protein: extract; label: 5' biotin (strand 1)
# Sequence of RBPJ (Q06330 whole entry): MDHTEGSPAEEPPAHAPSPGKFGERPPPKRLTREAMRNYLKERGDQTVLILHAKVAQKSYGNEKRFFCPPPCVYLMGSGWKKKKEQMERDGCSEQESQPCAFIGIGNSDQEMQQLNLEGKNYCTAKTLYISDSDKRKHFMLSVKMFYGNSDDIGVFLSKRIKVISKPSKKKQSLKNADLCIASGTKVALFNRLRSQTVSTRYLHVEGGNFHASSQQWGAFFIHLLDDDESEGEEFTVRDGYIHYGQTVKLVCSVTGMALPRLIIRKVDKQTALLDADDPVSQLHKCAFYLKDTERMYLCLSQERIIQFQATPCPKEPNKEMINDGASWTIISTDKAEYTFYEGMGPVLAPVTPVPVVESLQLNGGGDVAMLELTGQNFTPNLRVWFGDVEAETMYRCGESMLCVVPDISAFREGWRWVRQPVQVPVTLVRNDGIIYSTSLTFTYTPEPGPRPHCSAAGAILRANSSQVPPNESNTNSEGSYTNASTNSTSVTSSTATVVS
# ZBTB43 = target: T2, ZBTB43; conditions: protein: extract; label: 5' biotin (strand 1)
# PAX6 = PAX6 (Homo sapiens, UniProt P26367); conditions: protein: extract; label: 5' biotin (strand 1)
# Sequence of PAX6 (P26367 whole entry): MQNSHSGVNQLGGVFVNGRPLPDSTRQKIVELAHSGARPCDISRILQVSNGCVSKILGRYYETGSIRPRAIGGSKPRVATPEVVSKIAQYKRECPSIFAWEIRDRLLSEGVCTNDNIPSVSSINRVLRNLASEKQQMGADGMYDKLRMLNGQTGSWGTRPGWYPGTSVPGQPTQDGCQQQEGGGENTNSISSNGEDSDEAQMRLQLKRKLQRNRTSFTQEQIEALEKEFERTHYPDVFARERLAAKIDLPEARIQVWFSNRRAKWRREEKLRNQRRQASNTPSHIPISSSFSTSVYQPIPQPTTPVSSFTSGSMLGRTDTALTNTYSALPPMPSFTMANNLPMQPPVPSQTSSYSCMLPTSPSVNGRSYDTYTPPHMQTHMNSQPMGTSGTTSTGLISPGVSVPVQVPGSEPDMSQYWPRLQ
# NFAT5 = NFAT5 (Homo sapiens, UniProt O94916); conditions: protein: extract; label: 5' biotin (strand 1)
# FOXL2 = target: T3, FOXL2; conditions: protein: extract; label: 5' biotin (strand 1)
Binder,apparent K (half saturation) (KLF3),apparent K (half saturation) (ZBTB7B),apparent K (half saturation) (KLF10),apparent K (half saturation) (CTCF),apparent K (half saturation) (SP3),apparent K (half saturation) (TFAP2A),apparent K (half saturation) (NFIA),apparent K (half saturation) (HIVEP1),apparent K (half saturation) (RBPJ),apparent K (half saturation) (ZBTB43),apparent K (half saturation) (PAX6),apparent K (half saturation) (NFAT5),apparent K (half saturation) (FOXL2)
B1,124 nM,39.2 nM,41.2 nM,16.1 nM,72 nM,83.3 nM,72.8 nM,76.6 nM,376 nM,347 nM,,,
B2,,,,,,193 nM,119 nM,,208 nM,,191 nM,94.6 nM,140 nM
B3,61.9 nM,,,,19.3 nM,196 nM,,,,,,,
B4,,230 nM,84.5 nM,,,328 nM,,,,,,,140 nM
